# Results reported in patent US20230391888A1 (Sanofi, published 2023).
# T1: human CD123-Fc-His fusion protein (internal source) (human, UniProt P26951 19-305)
# T1 construct: not shown: Fc and His tag
# T1 sequence (looked up): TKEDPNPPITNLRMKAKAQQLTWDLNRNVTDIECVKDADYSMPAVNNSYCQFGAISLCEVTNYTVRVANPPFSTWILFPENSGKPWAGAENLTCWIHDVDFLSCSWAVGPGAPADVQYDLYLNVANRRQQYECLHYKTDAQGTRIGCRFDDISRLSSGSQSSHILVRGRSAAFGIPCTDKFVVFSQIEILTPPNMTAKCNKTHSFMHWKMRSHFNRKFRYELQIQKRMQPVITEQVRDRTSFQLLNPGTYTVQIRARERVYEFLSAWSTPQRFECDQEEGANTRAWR
# T2: Human IL4 (IL004, Millipore) (human, UniProt P05112 25-153)
# T2 sequence (looked up): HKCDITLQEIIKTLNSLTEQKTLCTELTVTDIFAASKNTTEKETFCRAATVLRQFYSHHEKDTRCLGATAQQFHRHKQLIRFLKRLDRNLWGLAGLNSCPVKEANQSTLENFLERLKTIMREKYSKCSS
# Key:
# [1] = molecular target: CD123 on THP-1 target cells (UniProt P26951 19-378, limits assumed); experiment: cell-based or functional assay
# [2] = molecular target: T1, human CD123-Fc-His fusion protein …; experiment: SPR, Biacore 8K; CD123-Fc-His captured by anti-His, antibody as analyte, 1:1 Langmuir fit
# Experimental: Binding of antigens to the antibody constructs was measured using surface plasmon resonance (SPR) with a BIAcore 8K instrument (GE Healthcare) with HBS-EP+ buffer (GE Healthcare). For binding kinetics and affinity determination human CD3εδ-Fc-His and human CD123-Fc-His fusion proteins (both from internal source) were used as antigens. The anti-His capture antibody (His capture kit, GE Life Sciences) was immobilized via primary amine groups (11000 RU) on a research grade CM5 chip (GE Life Sciences) using standard procedures. Antigens were captured by the anti-His capture chip surface at a flow rate of 10 μL/min for 90 sec to reach antibody binding levels between 10 and 30 RU. […] Dissociation was measured at 30 μL/min by injection of HBS-EP+ buffer for 1200 sec. The chip surface was regenerated by inject of regeneration buffer (His capture kit, GE Life Sciences). Sensorgrams were double referenced with a blank chip surface and H BS-EP+ buffer blanks. Data were fitted with a 1:1 Langmuir binding model for determination of kinetic and affinity constants ka, kd and KD using Biacore 8K Evaluation software v1.11.7442 (GE Healthcare).
# [3] = molecular target: T3, human IL13 (IL012, Millipore) (human, UniProt P35225 35-146); experiment: SPR, BIAcore 3000; antibody captured by anti-human Fc, antigen as analyte
# T3 sequence (P35225 35-146 limits assumed): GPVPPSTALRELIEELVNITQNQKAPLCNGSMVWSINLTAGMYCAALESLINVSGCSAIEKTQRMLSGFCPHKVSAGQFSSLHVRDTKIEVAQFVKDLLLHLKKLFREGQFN
# Experimental: (§1) Surface plasmon resonance (SPR) was used to assess the binding of antigens to antibody. Binding of antigens to the antibody constructs was measured using surface plasmon resonance (SPR) with a BIAcore 3000 instrument (GE Healthcare) with HBS-EP buffer (GE Healthcare). Human IL4 (IL004, Millipore) and human IL13 (IL012, Millipore), human HER2 (1129-ER, R&D Systems), human TNFa (H8916, SIGMA Aldrich), human CTLA4 (CT4-H5229, ACRO Biosystems), human PD-1 (8986-PD, R&D Systems), and human IL6Ra (227-SR/CF, R&D Systems) were used as antigens. The anti-human Fc capture antibody (human antibody capture kit, GE Life Sciences) was immobilized via primary amine groups (11000 RU) on a research grade CM5 chip (GE Life Sciences) using standard procedures. […] Binding tests with HER2 was performed by capture of the antigen with the anti-human Fc antibody. The tested antibody constructs were used as analytes and injected at 100 nM concentration for 240 sec with a dissociation time of 300 sec at a flow rate of 30 μL/min. Binding kinetics measurements were done using the captured antibodies with injects of two-fold serial dilutions of the analytes of 3 nM to 100 nM. […] Chip surfaces were regenerated with 2 min injects of the regeneration buffer provided with the capture kit. Sensorgrams were double referenced with a blank chip surface and HBS-EP buffer blanks. Data analysis was performed using the BIAevaluation software v4.1.
# [4] = molecular target: T3, human IL13 (IL012, Millipore); experiment: SPR, BIAcore 3000; antibody captured by anti-human Fc, antigen as analyte; the mark X is not explained
# Experimental: as §1, with “Data analysis was performed using the BIAevaluation software v4.1.” left out
# [5] = molecular target: T4, human HER2 (1129-ER, R&D Systems) (human, UniProt P04626 23-652); experiment: SPR (BIAcore 3000), binding test with HER2 captured by the anti-human Fc antibody, constructs injected at 100 nM; response as % of theoretical Rmax
# T4 construct: also called Receptor tyrosine-protein kinase erbB-2
# [6] = molecular target: T3, human IL13 (IL012, Millipore); experiment: SPR, BIAcore 3000; antibody captured by anti-human Fc, antigen as analyte; column head says nM, but kd/ka gives M
# Experimental: as §1
# [7] = molecular target: T2, Human IL4 (IL004, Millipore); experiment: SPR, BIAcore 3000; antibody captured by anti-human Fc, antigen as analyte
# Experimental: as §1
# [8] = molecular target: T2, Human IL4 (IL004, Millipore); experiment: SPR, BIAcore 3000; antibody captured by anti-human Fc, antigen as analyte; column head says nM, but kd/ka gives M
# Experimental: as §1
# [9] = molecular target: T5, human PD-1 (8986-PD, R&D Systems) (human, UniProt Q15116 25-167); experiment: SPR, BIAcore 3000; antibody captured by anti-human Fc, antigen as analyte
# T5 sequence (Q15116 25-167 limits assumed): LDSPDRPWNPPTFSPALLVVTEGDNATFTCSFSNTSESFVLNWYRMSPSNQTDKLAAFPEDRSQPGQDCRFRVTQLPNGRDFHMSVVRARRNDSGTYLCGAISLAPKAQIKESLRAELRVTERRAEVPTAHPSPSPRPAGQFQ
# Experimental: as §1
# [10] = molecular target: T5, human PD-1 (8986-PD, R&D Systems); experiment: SPR, BIAcore 3000; antibody captured by anti-human Fc, antigen as analyte; column head says nM, but kd/ka gives M
# Experimental: as §1
# [11] = molecular target: T4, human HER2 (1129-ER, R&D Systems); experiment: SPR; HER2 captured with the anti-human Fc antibody, antibody constructs as analytes (method in paragraph 368); FIG. 5A-5B
# Experimental: as §1
binder,measurement,setting,value
"anti-CD3ε-dsTrasKO2 × anti-CD123 (ID 38, alternative anti-CD3ε binding domain) (bispecific antibody, human IgG1, kappa, L234A L235A) light 1: not shown heavy 1: not shown heavy 2: EVQLQQSGPELVKPGASVKMSCKASGYTFTDYYMKWVKQSHGKSLEWIGDIIPSNGATFYNQKFKGKATLTVDRSSSTAYMHLNSLTSEDSAVYYCTRSHLLRASWFAYWGQGTLVTVSAASTKGPSVFPLAPSSKSTSGGTAALGCLVKDYFPEPVTVSWNSGALTSGVHTFPAVLQSSGLYSLSSVVTVPSSSLGTQTYICNVNHKPSNTKVDKKVEPKSCDKTHTCPPCPAPEAAGGPSVFLFPPKPKDTLMISRTPEVTCVVVDVSHEDPEVKFNWYVDGVEVHNAKTKPREEQYNSTYRVVSVLTVLHQDWLNGKEYKCKVSNKALPAPIEKTISKAKGQPREPQVCTLPPSRDELTKNQVSLSCAVKGFYPSDIAVEWESNGQPENNYKTTPPVLDSDGSFFLVSKLTVDKSRWQQGNVFSCSVMHEALHNRFTQKSLSLSPG light 2: DFVMTQSPSSLTVTAGEKVTMSCKSSQSLLNSGNQKNYLTWYLQKPGQPPKLLIYWASTRESGVPDRFTGSGSGTDFTLTISSVQAEDLAVYYCQNDYSYPYTFGGGTKLEIKRTVAAPSVFIFPPSDEQLKSGTASVVCLLNNFYPREAKVQWKVDNALQSGNSQESVTEQDSKDSTYSLSSTLTLSKADYEKHKVYACEVTHQGLSSPVTKSFNRGEC","Cytotox EC50 (dead CFSE/7-AAD double positive THP-1 target cells; human pan T cells, effector:target 10:1, 20 h)",[1],0.00095 nM
same,Kd,[2],0.332 nM
"IL13 pseudo-IgG (ID 22) (antibody, also called IL13 mAb Pseudo-IgG) light: not shown heavy: EVQLKESGPGLVAPGGSLSITCTVSGFSLTDSSINWVRQPPGKGLEWLGMIWGDGRIDYADALKSRLSISKDSSKSQVFLEMTSLRTDDTATYYCARDGYFPYAMDFWGQGTSVTVSSGGGGSGGGGSEVQLVESGGGLVQPGGSLRLSCAASGFNIKDTYIHWVRQAPGKCLEWVAEIYPTNGYTEYADSVKGRFTISADTSKNTAYLQMNSLRAEDTAVYYCSRWGGDGFYAMDYWGQGTLVTVSSDKTHTHHHHHH",kon,[3],1.54e+06 M⁻¹ s⁻¹
same,koff,[4],6.56e-07 s⁻¹
same,binding result,[5],no binding (tested: 100 nM)
same,Kd,[6],0.000425 nM
"IL4 mAb (ID 18, anti-IL4-VL1-IGKC / anti-IL4-VH1-IgG1) (antibody, V domains shown, also called IL4mAb-huIgG1) VH: QVQLQQSGPELVKPGASVKISCKASGYSFTSYWIHWIKQRPGQGLEWIGMIDPSDGETRLNQRFQGRATLTVDESTSTAYMQLRSPTSEDSAVYYCTRLKEYGNYDSFYFDVWGAGTLVTVSS VL: DIQMTQSPASLSVSVGDTITLTCHASQNIDVWLSWFQQKPGNIPKLLIYKASNLHTGVPSRFSGSGSGTGFTLTISSLQPEDIATYYCQQAHSYPFTFGGGTKLEIKR",koff,[7],0.000161 s⁻¹
same,kon,[7],1.04e+08 M⁻¹ s⁻¹
same,Kd,[8],0.00155 nM
"IL13 mAb (ID 3, anti-IL13-VL3-IGKC / anti-IL13-VH2-IGHG1) (antibody, human IgG1, kappa, V domains shown, also called IL13mAb-huIgG1) VH: EVQLKESGPGLVAPGGSLSITCTVSGFSLTDSSINWVRQPPGKGLEWLGMIWGDGRIDYADALKSRLSISKDSSKSQVFLEMTSLRTDDTATYYCARDGYFPYAMDFWGQGTSVTVSS VL: DIVLTQSPASLAVSLGQRATISCRASESVDSYGQSYMHWYQQKAGQPPKLLIYLASNLESGVPARFSGSGSRTDFTLTIDPVQAEDAATYYCQQNAEDSRTFGGGTKLEIKR",koff,[3],3.46e-05 s⁻¹
same,kon,[3],1.28e+06 M⁻¹ s⁻¹
same,Kd,[6],0.0269 nM
"PD1 × IL13 bispecific (ID 26, anti-PD1-dsTrasKO2-Fc knob × anti-IL13-huIgG1 hole-RF) (bispecific antibody, PD1 arm is the pseudoFab (dsTrasKO2), IL13 arm the normal Fab) light 1: not shown heavy 1: not shown light 2: not shown heavy 2: EVQLKESGPGLVAPGGSLSITCTVSGFSLTDSSINWVRQPPGKGLEWLGMIWGDGRIDYADALKSRLSISKDSSKSQVFLEMTSLRTDDTATYYCARDGYFPYAMDFWGQGTSVTVSSASTKGPSVFPLAPSSKSTSGGTAALGCLVKDYFPEPVTVSWNSGALTSGVHTFPAVLQSSGLYSLSSVVTVPSSSLGTQTYICNVNHKPSNTKVDKKVEPKSCDKTHTCPPCPAPELLGGPSVFLFPPKPKDTLMISRTPEVTCVVVDVSHEDPEVKFNWYVDGVEVHNAKTKPREEQYNSTYRVVSVLTVLHQDWLNGKEYKCKVSNKALPAPIEKTISKAKGQPREPQVCTLPPSRDELTKNQVSLSCAVKGFYPSDIAVEWESNGQPENNYKTTPPVLDSDGSFFLVSKLTVDKSRWQQGNVFSCSVMHEALHNRFTQKSLSLSPG",koff,[9],0.0029 s⁻¹
same,kon,[9],131000 M⁻¹ s⁻¹
same,koff,[3],1.66e-05 s⁻¹
same,kon,[3],2.92e+06 M⁻¹ s⁻¹
same,Kd,[10],22.1 nM
same,Kd,[6],0.00568 nM
"anti-TNP-dsTrasKO2 × anti-CD123 Negative control (ID 44) (bispecific antibody, human IgG1, kappa, L234A L235A) light 1: not shown heavy 1: not shown heavy 2: EVQLQQSGPELVKPGASVKMSCKASGYTFTDYYMKWVKQSHGKSLEWIGDIIPSNGATFYNQKFKGKATLTVDRSSSTAYMHLNSLTSEDSAVYYCTRSHLLRASWFAYWGQGTLVTVSAASTKGPSVFPLAPSSKSTSGGTAALGCLVKDYFPEPVTVSWNSGALTSGVHTFPAVLQSSGLYSLSSVVTVPSSSLGTQTYICNVNHKPSNTKVDKKVEPKSCDKTHTCPPCPAPEAAGGPSVFLFPPKPKDTLMISRTPEVTCVVVDVSHEDPEVKFNWYVDGVEVHNAKTKPREEQYNSTYRVVSVLTVLHQDWLNGKEYKCKVSNKALPAPIEKTISKAKGQPREPQVCTLPPSRDELTKNQVSLSCAVKGFYPSDIAVEWESNGQPENNYKTTPPVLDSDGSFFLVSKLTVDKSRWQQGNVFSCSVMHEALHNRFTQKSLSLSPG light 2: DFVMTQSPSSLTVTAGEKVTMSCKSSQSLLNSGNQKNYLTWYLQKPGQPPKLLIYWASTRESGVPDRFTGSGSGTDFTLTISSVQAEDLAVYYCQNDYSYPYTFGGGTKLEIKRTVAAPSVFIFPPSDEQLKSGTASVVCLLNNFYPREAKVQWKVDNALQSGNSQESVTEQDSKDSTYSLSSTLTLSKADYEKHKVYACEVTHQGLSSPVTKSFNRGEC",Kd,[2],0.287 nM
"dsTrasKO variant 1 (dsTrasKO1) (antibody, V domains shown, also called dsTrastuKO variant 1; Variant1 (TrasKO1) with VH44C/VL100C disulfide) VH: EVQLVESGGGLVQPGGSLRLSCAASGFNIKDTAIHWVRQAPGKCLEWVAEIYPTNGYTEYADSVKGRFTISADTSKNTAYLQMNSLRAEDTAVYYCSRWGGDGFAAMDYWGQGTLVTVSS VL: not shown",binding result,[11],no binding (tested: 100 nM)
"dsTrasKO variant 2 (dsTrasKO2) (antibody, V domains shown, also called dsTrastuKO variant 2; Variant2 (TrasKO2) with VH44C/VL100C disulfide) VH: EVQLVESGGGLVQPGGSLRLSCAASGFNIKDTYIHWVRQAPGKCLEWVAEIYPTNGYTEYADSVKGRFTISADTSKNTAYLQMNSLRAEDTAVYYCSRWGGDGFYAMDYWGQGTLVTVSS VL: not shown",binding result,[11],no binding (tested: 100 nM)
"dsTrasKO variant 3 (dsTrasKO3) (antibody, V domains shown, also called dsTrastuKO variant 3; Variant3 (TrasKO3) with VH44C/VL100C disulfide) VH: EVQLVESGGGLVQPGGSLRLSCAASGFNIKDTAIHWVRQAPGKCLEWVARIYPTNGYTRYADSVKGRFTISADTSKNTAYLQMNSLRAEDTAVYYCSRWGGDGFAAMDYWGQGTLVTVSS VL: not shown",binding result,[11],no binding (tested: 100 nM)
